Assay results: publication PMC5520896, “HIV integrase inhibitor, Elvitegravir, impairs RAG functions and inhibits V(D)J recombination” (Cell Death & Disease, 2017)
Changes are numbered by the printed parent chain. Each block holds one molecule with its values, some of them ahead of it.

Columns and labels:
RAG1 central domain = target: T1, RAG1 central domain (Mus musculus, UniProt P15919); test: biolayer interferometry (biotinylated central domain on SSA sensors); also circular dichroism, and inhibition of purified cRAG binding, cleavage and hairpin formation
T1 construct: central domain (amino acids 528–760)
T1 sequence (P15919 528-760): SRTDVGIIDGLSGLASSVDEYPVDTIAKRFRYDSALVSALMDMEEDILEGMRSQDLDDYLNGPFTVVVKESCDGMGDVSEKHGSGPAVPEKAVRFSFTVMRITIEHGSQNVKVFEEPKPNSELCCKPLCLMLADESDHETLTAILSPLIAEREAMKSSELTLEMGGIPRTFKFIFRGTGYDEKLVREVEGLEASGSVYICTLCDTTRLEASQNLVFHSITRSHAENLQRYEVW

[1] = target: T2, RAG1 central domain mutant CD-DD (Mus musculus, UniProt P15919, D600A/D708A); test: biolayer interferometry (biotinylated CD-DD on SSA sensors); assay type: binding
T2 construct: central domain (amino acids 528–760) with point mutations D600A/D708A
T2 sequence (P15919 528-760 D600A/D708A): T1 sequence (P15919 528-760) with D73A, D181A

MBP-core RAG1 (cRAG1) = target: T3, MBP-core RAG1 (cRAG1) (UniProt P15919 384-1040); test: EMSA; 5 mM Ca2+; lower band assigned to RAG1 alone; 22.5 mM MOPS-KOH pH 7.0, 20% DMSO, 2.2 mM DTT, 50 mM K-glutamate, 2% glycerol, 100 ng/ml BSA, 5 mM CaCl2, 100 ng RAG, 2 h 25 C, then 0.01% glutaraldehyde fixation 37 C 10 min; 6% native PAGE; settings: protein: recombinant; tags: N-terminal MBP; chain copies: 2; label: 5'-32P on AKN1; 1-nt 5' overhang at each end (49 bp)
T3 sequence: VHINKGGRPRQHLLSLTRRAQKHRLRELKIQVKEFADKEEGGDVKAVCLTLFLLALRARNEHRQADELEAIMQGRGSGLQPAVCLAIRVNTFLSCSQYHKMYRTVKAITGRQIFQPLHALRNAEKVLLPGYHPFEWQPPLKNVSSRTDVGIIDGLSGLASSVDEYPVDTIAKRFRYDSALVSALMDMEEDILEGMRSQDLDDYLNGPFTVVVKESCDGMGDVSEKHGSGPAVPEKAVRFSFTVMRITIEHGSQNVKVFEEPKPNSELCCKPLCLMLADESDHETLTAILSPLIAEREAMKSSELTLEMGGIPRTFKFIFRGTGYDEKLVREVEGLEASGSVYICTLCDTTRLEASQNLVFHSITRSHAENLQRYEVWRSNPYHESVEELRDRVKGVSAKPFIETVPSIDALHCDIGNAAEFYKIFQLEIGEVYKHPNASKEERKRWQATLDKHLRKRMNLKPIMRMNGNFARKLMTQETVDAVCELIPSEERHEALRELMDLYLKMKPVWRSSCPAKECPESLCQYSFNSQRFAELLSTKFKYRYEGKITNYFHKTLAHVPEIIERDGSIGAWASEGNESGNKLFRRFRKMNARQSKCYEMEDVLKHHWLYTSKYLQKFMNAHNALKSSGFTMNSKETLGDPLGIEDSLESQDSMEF

[2] = target: T4, MBP-core RAG1 (cRAG1);MBP-core RAG2 (cRAG2) (;, UniProt P15919;P21784 384-1040;1-383, |); test: EMSA; 5 mM Ca2+, no inhibitor; 22.5 mM MOPS-KOH pH 7.0, 20% DMSO, 2.2 mM DTT, 50 mM K-glutamate, 2% glycerol, 100 ng/ml BSA, 5 mM CaCl2, 100 ng RAG, 2 h 25 C, then 0.01% glutaraldehyde fixation 37 C 10 min; 6% native PAGE; settings: protein: recombinant;recombinant; tags: N-terminal MBP;N-terminal MBP; chain copies: 2;2; label: 5'-32P on AKN1; 1-nt 5' overhang at each end (49 bp)
T4 sequence 1: T3 sequence
T4 sequence 2: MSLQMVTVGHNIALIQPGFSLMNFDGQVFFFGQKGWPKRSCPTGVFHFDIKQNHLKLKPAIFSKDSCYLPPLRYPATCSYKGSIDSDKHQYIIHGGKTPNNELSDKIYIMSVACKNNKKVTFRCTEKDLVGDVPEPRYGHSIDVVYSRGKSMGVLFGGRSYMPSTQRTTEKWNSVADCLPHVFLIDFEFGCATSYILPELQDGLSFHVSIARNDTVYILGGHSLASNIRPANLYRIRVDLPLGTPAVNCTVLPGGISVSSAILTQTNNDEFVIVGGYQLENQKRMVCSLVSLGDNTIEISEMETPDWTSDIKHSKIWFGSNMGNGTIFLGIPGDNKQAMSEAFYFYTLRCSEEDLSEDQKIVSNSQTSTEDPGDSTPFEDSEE

[3] = target: T4, MBP-core RAG1 (cRAG1);MBP-core RAG2 …; test: EMSA; 5 mM Ca2+, Raltegravir 0.1-0.5 mM (no significant effect); 22.5 mM MOPS-KOH pH 7.0, 20% DMSO, 2.2 mM DTT, 50 mM K-glutamate, 2% glycerol, 100 ng/ml BSA, 5 mM CaCl2, 100 ng RAG, 2 h 25 C, then 0.01% glutaraldehyde fixation 37 C 10 min; 6% native PAGE; settings: protein: recombinant;recombinant; tags: N-terminal MBP;N-terminal MBP; chain copies: 2;2; label: 5'-32P on AKN46; blunt ends, internal 6-nt CCCCCC/CCCCCC bubble flanked by 15 bp each side

- Kd (RAG1 central domain): 32.5 ± 2.9 µM
- Kd [1]: 43.7 ± 3 µM
Molecule: COc1cc2c(cc1Cc1cccc(Cl)c1F)c(=O)c(C(=O)O)cn2[C@H](CO)C(C)C [EVG, Elvitegravir]

B1: 12RSS (AKN1/AKN2) (dsDNA)
DNA 1: GATCAGCTGATAGCTACCACAGTGCTACAGACTGGAACAAAAACCCTGCT
DNA 2: TAGCAGGGTTTTTGTTCCAGTCTGTAGCACTGTGGTAGCTATCAGCTGAT
- binding result (MBP-core RAG1 (cRAG1)): binds
- binding result [2]: binds

B2: (C/C)6 bubble heteroduplex (AKN46/AKN20) (mixed)
DNA 1: GACCTGAGGGCGAGCCCCCCCCGAGTAACTTAACAG
DNA 2: CTGTTAAGTTACTCGCCCCCCGCTCGCCCTCAGGTC
- binding result [3]: binds
